Literature values in PMC11170211.

Test system: Asp102
Assay: NMR

In the case of “alpha-lytic protease (not stated in the article (described only as bacterial); Lysobacter enzymogenes from outside knowledge)”, the pKa is given as “below 1.5”.
